This is an account of results in patent US20230009539A1 (CLEVELAND CLINIC FOUNDATION, published 2023).

For one test, the target named is T1, FLAG-hDcp2 (human, UniProt Q8IU60 1-420).
T1 construct: also called FLAG-tagged Dcp2; not shown: FLAG tag
The test is described as follows: co-immunoprecipitation with anti-FLAG from transfected HeLa cells, HA blot.

The target of test [1] is T2, TBK1 (endogenous, HeLa cells) (human (HeLa cells), UniProt Q9UHD2 1-729).
T2 sequence (looked up): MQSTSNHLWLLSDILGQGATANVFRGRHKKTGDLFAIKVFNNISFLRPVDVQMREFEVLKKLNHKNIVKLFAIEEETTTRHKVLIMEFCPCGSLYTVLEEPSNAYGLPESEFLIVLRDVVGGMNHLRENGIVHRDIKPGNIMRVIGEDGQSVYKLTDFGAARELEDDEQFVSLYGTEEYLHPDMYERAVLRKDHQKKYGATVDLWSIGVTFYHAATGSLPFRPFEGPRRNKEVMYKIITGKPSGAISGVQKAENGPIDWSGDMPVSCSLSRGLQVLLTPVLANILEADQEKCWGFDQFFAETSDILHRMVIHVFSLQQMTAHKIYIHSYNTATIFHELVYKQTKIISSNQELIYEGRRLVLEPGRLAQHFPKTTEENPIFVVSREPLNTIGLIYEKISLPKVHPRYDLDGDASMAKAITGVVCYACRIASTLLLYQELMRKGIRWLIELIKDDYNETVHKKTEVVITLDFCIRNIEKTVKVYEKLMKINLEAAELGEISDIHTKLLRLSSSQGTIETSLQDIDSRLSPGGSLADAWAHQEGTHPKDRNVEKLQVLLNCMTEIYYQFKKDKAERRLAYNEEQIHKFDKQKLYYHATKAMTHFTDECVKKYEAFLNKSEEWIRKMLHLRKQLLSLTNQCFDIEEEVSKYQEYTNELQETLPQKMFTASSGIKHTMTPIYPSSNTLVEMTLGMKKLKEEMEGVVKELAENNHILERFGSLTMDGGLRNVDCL
Put plainly: anti-Act1 immunoprecipitation from untreated and IL-17-treated HeLa cells (FIG. 4D). On the procedure:
(§1) Immunoblot, immunoprecipitation and nuclear fractionation: Cell were harvested and lysed on ice in a lysis buffer containing 0.5% Triton X-100, 20 mM Hepes pH 7.4, 150 mM NaCl, 12.5 mM-glycerophosphate, 1.5 mM MgCl2, 10 mM NaF, 2 mM dithiothreitol, 1 mM sodium orthovanadate, 2 mM EGTA, […], and 1 mM phenylmethylsulfonyl fluoride for 20 minutes, followed by centrifuging at 12,000 rpm for 15 minutes to extract clear lysates. For immunoprecipitation, cell lysates were incubated with 1 μg of antibody and A-sepharose beads at 4 degree overnight. After incubation, the beads were washed four times with lysis buffer and the precipitates were eluted with 2× sample buffer. Elutes and whole cell extracts were resolved on SDS-PAGE followed by immunobloting with antibodies. Nuclear fractionation was performed using NUCLEI EZ PREP kit purchased from Sigma in accordance with the manufacturer's instruction. Nuclear pellets were suspended in 30p1 of nuclear extraction buffer (20 mM HEPES, 400 mM NaCl, 1 mM EDTA, 1 mM EGTA in water, pH 7.9) containing freshly prepared 1 mM DTT and protease inhibitor cocktail. After 1.5 h incubation on ice bath with intermittent vortexing, extracts were centrifuged and supernatant was collected for immunoprecipitation.

The target in test [2] is T3, IKKi (endogenous, HeLa cells) (human (HeLa cells), UniProt Q14164 1-716).
T3 sequence (looked up): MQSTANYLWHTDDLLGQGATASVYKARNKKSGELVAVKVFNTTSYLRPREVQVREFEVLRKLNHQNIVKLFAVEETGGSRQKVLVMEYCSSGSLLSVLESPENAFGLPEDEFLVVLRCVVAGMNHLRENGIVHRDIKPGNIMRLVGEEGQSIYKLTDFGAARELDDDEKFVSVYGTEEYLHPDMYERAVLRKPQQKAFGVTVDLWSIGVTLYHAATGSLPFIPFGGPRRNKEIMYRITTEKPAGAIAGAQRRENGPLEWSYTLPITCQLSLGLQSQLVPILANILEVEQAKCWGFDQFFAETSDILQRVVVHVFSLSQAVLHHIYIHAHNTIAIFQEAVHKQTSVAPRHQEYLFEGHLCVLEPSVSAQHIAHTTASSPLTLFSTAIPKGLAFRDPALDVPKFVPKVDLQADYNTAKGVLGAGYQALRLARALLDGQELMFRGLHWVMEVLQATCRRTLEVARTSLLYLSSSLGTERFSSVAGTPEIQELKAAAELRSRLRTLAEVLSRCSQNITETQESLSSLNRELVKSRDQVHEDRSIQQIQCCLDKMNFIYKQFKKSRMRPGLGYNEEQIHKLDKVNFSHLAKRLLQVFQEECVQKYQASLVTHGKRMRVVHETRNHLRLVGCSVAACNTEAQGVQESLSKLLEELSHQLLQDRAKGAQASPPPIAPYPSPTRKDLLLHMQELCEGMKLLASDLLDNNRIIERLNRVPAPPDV
Described as above. On the procedure: as §1

The target in test [3] is T4, Dcp1 (endogenous, HeLa cells) (human (HeLa cells), UniProt Q9NPI6 1-582).
T4 construct: its constructs and phospho-antibody are Dcp1a; also called Dcp1 decapping enzyme; Dcp1a
T4 sequence (looked up): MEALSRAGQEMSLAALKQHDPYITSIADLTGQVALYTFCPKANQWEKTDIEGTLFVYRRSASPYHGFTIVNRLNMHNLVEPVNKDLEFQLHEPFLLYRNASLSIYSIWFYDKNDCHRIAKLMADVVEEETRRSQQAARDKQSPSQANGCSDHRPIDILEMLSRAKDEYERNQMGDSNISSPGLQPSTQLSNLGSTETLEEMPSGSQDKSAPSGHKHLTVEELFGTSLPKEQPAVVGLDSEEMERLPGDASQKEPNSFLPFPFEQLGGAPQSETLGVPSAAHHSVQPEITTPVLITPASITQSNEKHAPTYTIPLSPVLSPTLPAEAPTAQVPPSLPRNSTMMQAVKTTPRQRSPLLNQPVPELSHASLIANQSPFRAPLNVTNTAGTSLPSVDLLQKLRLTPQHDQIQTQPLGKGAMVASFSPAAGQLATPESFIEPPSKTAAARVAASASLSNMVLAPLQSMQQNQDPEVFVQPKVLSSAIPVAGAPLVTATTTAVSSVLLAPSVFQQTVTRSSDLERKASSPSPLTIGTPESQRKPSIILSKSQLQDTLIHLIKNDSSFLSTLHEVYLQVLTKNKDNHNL
The test is described as follows: in situ proximity ligation assay with anti-Act1 and anti-Dcp1, endogenous proteins in HeLa cells, untreated or IL-17.

The target of another test is T5, FLAG-hDcp1a (human, UniProt Q9NPI6 1-582).
T5 construct: also called Dcp1-Flag; FLAG-tagged Dcp1; not shown: FLAG tag
T5 sequence (looked up): T4 sequence (looked up)
The test is described as follows: in situ proximity ligation assay (anti-Flag and anti-HA) in HeLa cells co-transfected with Dcp1-FLAG and Act1-HA.

A further test has as its target T6, FLAG-hIRAK1 (human, UniProt P51617 1-712).
T6 construct: Negative control of the PLA; also called IRAK1-Flag; not shown: FLAG tag
The test is described as follows: in situ proximity ligation assay (anti-Flag and anti-HA) in HeLa cells co-transfected with IRAK1-FLAG and Act1-HA (negative control).

T6 sequence (P51617 whole entry): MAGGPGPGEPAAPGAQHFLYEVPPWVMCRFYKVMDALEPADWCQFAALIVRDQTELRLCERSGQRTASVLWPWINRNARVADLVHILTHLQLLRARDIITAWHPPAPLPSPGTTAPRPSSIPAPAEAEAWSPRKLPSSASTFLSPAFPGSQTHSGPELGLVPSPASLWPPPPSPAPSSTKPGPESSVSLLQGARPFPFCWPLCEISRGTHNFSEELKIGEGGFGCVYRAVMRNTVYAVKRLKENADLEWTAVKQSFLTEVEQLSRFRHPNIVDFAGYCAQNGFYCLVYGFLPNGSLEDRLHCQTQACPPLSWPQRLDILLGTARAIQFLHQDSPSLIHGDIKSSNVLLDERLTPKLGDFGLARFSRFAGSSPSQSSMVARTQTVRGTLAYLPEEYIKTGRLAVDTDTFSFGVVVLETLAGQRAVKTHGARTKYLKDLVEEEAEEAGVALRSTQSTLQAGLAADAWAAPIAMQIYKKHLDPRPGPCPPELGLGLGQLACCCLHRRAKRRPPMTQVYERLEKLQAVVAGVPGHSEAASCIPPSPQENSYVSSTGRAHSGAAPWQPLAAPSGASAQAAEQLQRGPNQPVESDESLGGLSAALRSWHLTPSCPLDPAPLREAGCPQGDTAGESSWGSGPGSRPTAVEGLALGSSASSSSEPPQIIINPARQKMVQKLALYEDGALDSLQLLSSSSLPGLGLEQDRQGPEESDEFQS

B1: HA-TBK1 (enzyme, not shown: small tags and cut ends)
chain: T2 sequence (looked up)
notes: also called HA-tagged TBK1
As for B1, the binding result with FLAG-hDcp2 is “no binding”.

B2: Act1 (endogenous, HeLa cells) (other, human (HeLa cells), UniProt O43734 1-574, looked up)
chain: MPPQLQETRMNRSIPVEVDESEPYPSQLLKPIPEYSPEEESEPPAPNIRNMAPNSLSAPTMLHNSSGDFSQAHSTLKLANHQRPVSRQVTCLRTQVLEDSEDSFCRRHPGLGKAFPSGCSAVSEPASESVVGALPAEHQFSFMEKRNQWLVSQLSAASPDTGHDSDKSDQSLPNASADSLGGSQEMVQRPQPHRNRAGLDLPTIDTGYDSQPQDVLGIRQLERPLPLTSVCYPQDLPRPLRSREFPQFEPQRYPACAQMLPPNLSPHAPWNYHYHCPGSPDHQVPYGHDYPRAAYQQVIQPALPGQPLPGASVRGLHPVQKVILNYPSPWDHEERPAQRDCSFPGLPRHQDQPHHQPPNRAGAPGESLECPAELRPQVPQPPSPAAVPRPPSNPPARGTLKTSNLPEELRKVFITYSMDTAMEVVKFVNFLLVNGFQTAIDIFEDRIRGIDIIKWMERYLRDKTVMIIVAISPKYKQDVEGAESQLDEDEHGLHTKYIHRMMQIEFIKQGSMNFRFIPVLFPNAKKEHVPTWLQNTHVYSWPKNKKNILLRLLREEEYVAPPRGPLPTLQVVPL
notes: Endogenous protein in cells or cell lysate; also called CIKS; endogenous Act1
As for B2, the binding result in test [1], in test [2] and in test [3] was “binds” throughout.

B3: HA-hAct1 (other, human, UniProt O43734 1-574, looked up)
chain: B2 chain
notes: Printed as HA-hAct1 in the constructs and Act1-HA in the legends; also called Act1-HA; not shown: HA tag
With B3, the figures for the binding result in the test with FLAG-hDcp1a and with FLAG-hIRAK1 were “binds” and “no binding”, respectively.
